Results as given in PMC8504119.

Molecular target: tetrameric biotin non-binding streptavidin 'Dead' (SA-4D) (UniProt P22629)
Experiment: SDS-PAGE without boiling; refolded, purified SA-A and SA-D; samples not subjected to thermal denaturation keep the tetramer

With “tetrameric biotin non-binding streptavidin 'Dead' (SA-4D) (from UniProt P22629 25-183) (natural protein)” the stoichiometry N was 4.
